Assay results reported in US20220340657A1 (L AND L BIO CO LTD NINGBO CHINA, published 2022).
Several values for one entry are separate records, joined by “and”; a condition that tells them apart may be missing. Equal entries are not always repeated. Where two headings read alike, the source gives them in different places.

Legend:
[1] = biological target: T1, human LAG-3-his (human, UniProt P18627 23-422); experiment: ELISA on coated human LAG-3, OD450 (Example 3, Example 13) [panel a]
T1 construct: range 23-422; also called hLAG-3-his; hLAG-3
T1 sequence: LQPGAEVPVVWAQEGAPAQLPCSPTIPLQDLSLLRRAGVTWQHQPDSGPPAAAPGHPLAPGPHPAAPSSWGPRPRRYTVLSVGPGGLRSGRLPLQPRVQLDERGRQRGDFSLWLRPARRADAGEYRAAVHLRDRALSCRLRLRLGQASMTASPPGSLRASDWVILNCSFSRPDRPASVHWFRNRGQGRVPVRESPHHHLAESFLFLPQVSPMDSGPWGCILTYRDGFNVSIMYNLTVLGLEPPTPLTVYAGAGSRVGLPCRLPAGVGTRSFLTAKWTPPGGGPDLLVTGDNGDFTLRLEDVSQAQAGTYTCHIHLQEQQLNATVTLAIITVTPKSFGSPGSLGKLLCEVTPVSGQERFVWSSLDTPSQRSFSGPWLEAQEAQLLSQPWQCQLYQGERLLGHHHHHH

[2] = biological target: T1, human LAG-3-his; experiment: as above; remark: listed apart in the source
[3] = biological target: T2, bio-LAG3-mFc (human, UniProt P18627 23-450, biotin-labelled); experiment: blocking ELISA, LAG-3 on Daudi cells
T2 construct: also called hLAG-3
T2 sequence (looked up): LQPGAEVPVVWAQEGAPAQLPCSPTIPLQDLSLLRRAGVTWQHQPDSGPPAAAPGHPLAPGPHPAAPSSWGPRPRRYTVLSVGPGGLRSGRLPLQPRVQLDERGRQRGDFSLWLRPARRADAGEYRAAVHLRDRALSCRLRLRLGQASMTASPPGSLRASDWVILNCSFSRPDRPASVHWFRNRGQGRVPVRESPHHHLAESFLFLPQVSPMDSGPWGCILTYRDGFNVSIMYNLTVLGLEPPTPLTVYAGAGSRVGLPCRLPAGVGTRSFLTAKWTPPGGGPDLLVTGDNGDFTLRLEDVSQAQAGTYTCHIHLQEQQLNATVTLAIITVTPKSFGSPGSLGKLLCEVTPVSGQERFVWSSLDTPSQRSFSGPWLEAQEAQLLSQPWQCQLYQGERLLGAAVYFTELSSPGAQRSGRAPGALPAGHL

[4] = biological target: T1, human LAG-3-his; experiment: ELISA on coated human LAG-3, OD450 (Example 3, Example 13) [panel a]; remark: listed apart in the source
[5] = biological target: T1, human LAG-3-his; experiment: as above; remark: listed apart in the source
[6] = biological target: T2, bio-LAG3-mFc; experiment: blocking of LAG3 binding to Daudi cells, same experiment
Method: The Daudi cell line (ATCC, CCL-213) was expanded and seeded into 96-well microplate at a density of 2×10⁵ cells/well, and then centrifuged at 1600 rpm for 10 min; thereafter the cells were fixed with 100 μl/well of a fixative solution for immunostaining (Shanghai Beyotime Biotechnology Co., Ltd., Cat. No.: P0098) for half an hour at room temperature. After washing with PBS (BasalMedia Biology, Cat. No.: B320) once, 5% milk was added with 230 μl per well, and the microplate was incubated for 2 hours at 37° C. for blocking, then was washed three times with PBST. […] The microplate was then incubated for 1 hour at 37° C. and washed 5 times with PBST. 50 μl/well of 1:1000 diluted streptavidin-HRP secondary antibody (GenScript, Cat. No.: M00091) was added to the microplate and incubated for 1 hour at 37° C. After washing the microplate 5 times with PBST, 50 μl/well TMB (Surmodic, Cat. No.: TTMB-1000-01) was added to the microplate for color development, and 50 μl/well 1M H₂SO₄ was added to stop the reaction. The microplate was then read by a microplate reader (MuitiskanGo Thermo, model 511919200), and the data were analyzed using GraphPad prism 5.

EC50 (read off the curve) [1]: ~0.3 nM
EC50 (read off the curve) [2]: ~0.3 nM
fold stronger blocking activity than Ref [3]: ≥ 2 times
EC50 (read off the curve) [4]: ~0.3 nM
EC50 (read off the curve) [5]: ~0.3 nM
IC50 [6]: 9.78 nM and 28 nM
B1: humanized anti-human LAG-3 antibody Ab2317 (antibody, human IgG4 S228P, kappa, V domains shown)
VH: QVQLVQSGAEVKKPGASVKVSCKASGYTFTDYEMHWVKQAPGQGLEWIGGIDPETEGIAYNQKFRGRATLTADKSTSTAYMELRSLRSDDTAVYYCTNSNYYGGREAWFAYWGQGTLVTVSS
VL: DIQMTQSPSSLSASVGDRVTITCRASQDIGSSLNWYQQKPGKAPKRLIYATSSLDSGVPSRFSGSRSGSDFTLTISSLQPEDFATYYCLQYVTSPLTFGGGTKVEIKR
notes: LG2317 / LG2343, human kappa / hIgG4
